Data published in patent publication US20160031999A1 (CSL, published 2016).
Numbering of substitutions follows the chain as printed.

T1: human IL-11Rα (form used in the assay not stated) (human, UniProt Q14626 23-363, limits assumed)
T1 construct: also called hIL-11R; hIL-11Rα
T1 sequence: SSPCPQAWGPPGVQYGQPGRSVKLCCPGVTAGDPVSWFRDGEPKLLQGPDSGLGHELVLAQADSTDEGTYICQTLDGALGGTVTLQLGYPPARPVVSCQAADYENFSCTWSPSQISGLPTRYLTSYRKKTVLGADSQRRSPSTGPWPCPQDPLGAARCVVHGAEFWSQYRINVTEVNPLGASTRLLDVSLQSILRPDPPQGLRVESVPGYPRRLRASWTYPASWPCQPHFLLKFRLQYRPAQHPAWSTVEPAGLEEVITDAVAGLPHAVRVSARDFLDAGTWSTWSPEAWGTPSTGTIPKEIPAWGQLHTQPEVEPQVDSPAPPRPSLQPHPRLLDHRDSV

T2: human IL-11Rα on transfected cells (human, UniProt Q14626 23-422)
T2 sequence: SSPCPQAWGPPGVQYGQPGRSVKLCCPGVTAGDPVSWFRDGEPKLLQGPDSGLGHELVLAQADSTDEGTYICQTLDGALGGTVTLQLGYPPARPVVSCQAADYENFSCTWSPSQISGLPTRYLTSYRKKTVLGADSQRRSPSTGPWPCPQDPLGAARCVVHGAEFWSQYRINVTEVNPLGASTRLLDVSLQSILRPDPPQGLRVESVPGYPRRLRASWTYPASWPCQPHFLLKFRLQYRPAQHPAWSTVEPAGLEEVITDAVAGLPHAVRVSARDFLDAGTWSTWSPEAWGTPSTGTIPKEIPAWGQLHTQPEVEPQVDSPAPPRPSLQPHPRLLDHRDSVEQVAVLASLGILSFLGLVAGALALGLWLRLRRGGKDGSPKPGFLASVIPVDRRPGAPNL

B1: hu8E2-TS-312 (antibody, V domains shown)
VH: EVQLLESGGGLVQPGGSLRLSCAASGFTFSWYSMTWVRQAPGKGLEWVSSIVPSGGHTQYADSVKGRFTISRDNSKNTLYLQMNSLRAEDTAVYYCAKGPGWGSFDLWGRGTLVTVSS
VL: DIQMTQSPSSLSASVGDRVTITCQASQDIGQYVEWYQQKPGKAPKLLIYDASNLQTGVPSRFSGSGSGTDFTFTISSLQPEDIATYYCQQYDNLSPTFGPGTKVDIK
B2: hu8E2-TS-322 (antibody, V domains shown)
VH: B1 VH
VL: B1 VL with I29V, G30H, Q31H, V33M
B3: hu8E2-TS-313 (antibody, V domains shown)
VH: B1 VH
VL: B1 VL with I29V, G30S, Q31G
B4: hu8E2-TS-213 (antibody, V domains shown)
VH: B1 VH with S104Q, D106A, L107V
VL: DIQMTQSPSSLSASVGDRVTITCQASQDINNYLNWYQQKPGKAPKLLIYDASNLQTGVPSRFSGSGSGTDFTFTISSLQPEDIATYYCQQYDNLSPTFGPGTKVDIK

The binders below were run against T1, human IL-11Rα (form used in the assay …) (assay: Biacore, pH 8.5, 37°C).
B1 showed a Kd of 1.76 nM. Work on B2 yielded a Kd of 6.01 nM. In the case of B3, the Kd is reported as 5.56 nM.

The binders below were run against T2, human IL-11Rα on transfected cells (assay: cell-based or functional assay).
B4 was tested, and the “Fold increase in potency relative to 8E2” value was 1.2 fold and the “IC50” value was 0.51 µg/mL. With B1 the “Fold increase in potency relative to 8E2” value was 1.2 fold and the “IC50” value was 0.29 µg/mL. For B2, the “Fold increase in potency relative to 8E2” value was 1.1 fold and the “IC50” value was 0.33 µg/mL. For B3, the “Fold increase in potency relative to 8E2” value was 0.7 fold and the “IC50” value was 0.51 µg/mL.

What follows are binders tested against T1, human IL-11Rα (form used in the assay …) (assay: Biacore, pH 8.5, 37°C; some heterogeneity observed, an accurate KD difficult to determine).
B4 gave a Kd of over 9 nM.
